In the domain aggregation screens of Martell et al. (2025):

Assay: soluble fraction after stress (log2 fold change); higher = more stays soluble; pooled small domains, quantitative proteomics
Conditions: stress: 50 degC
In short: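 After stress at 50°C, the amount of each protein still soluble was measured. This was done on pooled custom libraries of small protein domains, using high-throughput quantitative proteomics. The figure given is a base-two log fold change and stands for aggregation propensity, with higher values meaning more protein stays in solution.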

Sequence	soluble fraction (log2)
HMESIGANIRRLRKERNMSQDELARKAFTNRSNINRYESGKMVPSADTTEKIEEALGVPAGTLAQ	0.132
HMIHKTDAINLGQRLLKSSLKEFDVSLKDIPNKTLMYILSEYKFNSLDDLYREIGLGNVIPKLVALRMAP	-0.423
HMSQAVEISSVKTQIDGKSYYLHTIKQGQTLYGISKAYGVSVEELTTVNPETSKGLKVGQIIKVPDTKT	0.0299
HMTVDHDERRSMILEAFMRLAAREGLHAVSLRGVAAEAGISLRLVQYYFETKARLMQSGLTALET	-0.281
HMELNILELKSKERKISLEDHLYIKSFNFDNETNEYFYRLAFNSSKDLKNFKATINNDKTISIINFEI	-3.16
HMFAERLKELRKMRRFSQHALAERLGISQQAVGKWETGKSTPDPATLREIADIFEVSVDLLLGR	-0.247
HMTDAYEVLDLNREASDEEIKKRYRELIREHHPDTLIAKGVPQEFVDLANDKMAAINAAYDRIEKDRGL	0.279
HMVKSIDEIYNEAVKSLANEDYDAAKKLFNYLINNFSDPDKFPLSLFWLAEIEFSSSNFDASKNYYMQ	0.0746
HMNVESLVGKQVIVSETIDNLKATGQVKVNGLEWTARAADETDIIPQGTEVTINEVSGVKLIVSR	0.241
HMKELLTKQQREEILETVKTKTPKDFGYTAEHWTTGFLGKWIEEHYEVEYKSKTSLYLVFKKASFTYHKPG	0.228
HMIGITTANLNVRTGTDTNYTSIAILPKGTKVNILEENVKPGWYKIQFDEIYAFVSSKYIKIQS	-1.12
HMSIGLEDLIEQKGVADTDLRPSGWINVGNQRIFVVTEGSYIDQNDNVIILSVDGNRVVVRKI	-0.747
HMSHGSIYFSGKTGLKGSVDINGTVNSINKKIFLKPGNYNFLIKADGYKNLKGSFQISKGDKKFVELVLIP	-1.61
HMTSVMAWRLITPIPQHGIIRSSQVQLQKHAPNSLKFLDVDSSPVGKQVKHGIAAGHWLSKDDFTE	-0.937
HMSIQQEATGNRIRELLLNNGYTVKDIQEVMGFENPQAVYKWLSGKSLPNLDNLLILSKVLHTSIEDILV	-0.699
HMKLTEEEFNAKRKAYLDRLETLNDEAVIKATFMEAASGLGLQKGSAEFGDLRKYFVDRIVDIK	0.385
HMIRDTTMYPVSVNGKKRYEWTVSKSISDDELKQQVLELEEIKKWIEGHEIKKLIFVPGRAINIV	-0.69
HMRGVNEISYTTLISEVSGGNVRDVVISGDEITGTFNDGSRFHSFSPDDPQFIERLNDQGVIINVKPL	-0.0829
HMAYLTVPAVIAKDTKKSIQLLESKGFEVVIQDSIYTDTLARGTVIKQLPDPNATVKINRTVYLTVNRYTP	-2.1

Sequence	soluble fraction (log2)
HMPGLSQAEAQSLLIAYLAQQGRTLELIPLGQSGDVWRFSGRESDGTVVSFFMVSRTDGTISEVPVPP	-0.62
HMYGHKLDSYESYVVSELRRWPFLSAPQIHDRLKEHFSDLPLVTPKTVFNFVNRLRLTHSLPKE	-3.13
HMQVTIGADLAEHAARLDVQISDVVKLIKSGVSEGEIKVGLTKLETRLAHPELALVENKLAYLKALIAES	-0.243
HMKIPPIMFVRAIMVAGRQSMAIMDIEGVGTGIIVRSGYSFSNGEGKVVRIGPDKVTVNWSGKHLDLAPG	-0.615
HMYQNRLFYTLKTGETVADLSKSQDINLSTIWSLNKHLYSSESEMMKAAPGQQIILPLKKLP	-0.105
HMSPIQLKYNEYLIYIDEGKINTAEIHGNKITGKLKEGSEYVVTIYPELIASITEKLAENNVQTQLIQ	-0.0206
HMLVSVSNYLGQNVDTVKSDLEALGLVVKLKEQQTDRESENGAVLEQSIEGGSKVSAGTPITLTYGK	0.187
HMGIVYGVIKENWDQDHPGMVKVEILQGESGKNVSDWIPVMSPYAGKEFGAYALPEIGTQAVVAFE	-0.0355
HMEQLESAVASRTLIGQAQGVIMERYGLSAPNAFSVLSRISQDSNTKLAEVAQQIVATRRIPG	-0.188
HMDFQTDVFISRFAELKKESGETNKDLQDVFELSLSALINYQTGKRIPDIAFLHKLAQHFGVSADYLLGLS	-0.549
HMEGMQATVTQITDEGITVRYVMNGQMVTRTLTSDEVAFVNRGQAVSDLAGAYRVGQTVWIY	-0.0401
HMRFNIGNVIEHYKLNTEDLAKVLFPTVKYPKQAFDRVLKGEANLDVIQLERLANHIGVLVTDLF	-0.196
HMGSTDTLEDALEAAEKISYPVIIKATAGGGGRGMKVASSLEELKKVYHTTKLEAKNAFGNDQVYIEKYL	0.116
HMQEAGKWLKKLRTERKITLEQLSKKTGLSVGFLSQFERGLTSIAIDTLEKIAAVFNVTIDYFISP	0.0423
HMKKTETVRFTTNVTHGTKIKETDVEVVKISNSALPDKVVKNKTEVIGKYATADLFKGDFATENKVTD	0.0533
HMRDSLVGLEGVVVREVDDETLAGKVQIGSMEWSARSESGRIPAGRRVVVLRAEGVHIVVKEV	-0.205
HMNQNIYVPKLEGLQIEEASSILKSKGLNIEITDSIFRKDAVPGAIIEQTPKPNSRVKTGRNIYVSIYSK	-0.0536
HMKLVELVGSPKQIAWAEDIRKNMISYLSALVRKYEAENRPARAEKRAKDMEILSNIKEASWFIENRS	-0.661
HMSISSIDFENLKSDELSDAQITQIYRQAQEQGLSIDELSSLAIARGMSPTEVAKLRSRFNSIP	0.167
